Assay results: patent US20210347832

Experiments:
[1] = test system: T1, C16-CathB-SIINFEKL
T1 sequence: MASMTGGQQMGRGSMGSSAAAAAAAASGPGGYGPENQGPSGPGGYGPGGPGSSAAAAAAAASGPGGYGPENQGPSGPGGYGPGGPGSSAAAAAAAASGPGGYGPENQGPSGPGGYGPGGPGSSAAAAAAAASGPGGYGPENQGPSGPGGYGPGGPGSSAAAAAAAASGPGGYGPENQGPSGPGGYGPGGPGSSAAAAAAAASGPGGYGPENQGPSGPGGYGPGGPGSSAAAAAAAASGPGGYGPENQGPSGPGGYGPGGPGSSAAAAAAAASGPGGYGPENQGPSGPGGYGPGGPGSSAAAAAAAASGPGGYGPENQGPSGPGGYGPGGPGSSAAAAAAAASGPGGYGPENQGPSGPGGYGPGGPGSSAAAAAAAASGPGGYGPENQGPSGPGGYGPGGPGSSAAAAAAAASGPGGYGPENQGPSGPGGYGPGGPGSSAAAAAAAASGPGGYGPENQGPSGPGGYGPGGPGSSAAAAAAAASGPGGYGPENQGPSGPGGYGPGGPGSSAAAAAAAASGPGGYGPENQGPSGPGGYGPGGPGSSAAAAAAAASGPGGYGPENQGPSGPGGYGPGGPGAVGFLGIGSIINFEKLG

[2] = test system: T2, C16-CathS-SIINFEKL
T2 sequence: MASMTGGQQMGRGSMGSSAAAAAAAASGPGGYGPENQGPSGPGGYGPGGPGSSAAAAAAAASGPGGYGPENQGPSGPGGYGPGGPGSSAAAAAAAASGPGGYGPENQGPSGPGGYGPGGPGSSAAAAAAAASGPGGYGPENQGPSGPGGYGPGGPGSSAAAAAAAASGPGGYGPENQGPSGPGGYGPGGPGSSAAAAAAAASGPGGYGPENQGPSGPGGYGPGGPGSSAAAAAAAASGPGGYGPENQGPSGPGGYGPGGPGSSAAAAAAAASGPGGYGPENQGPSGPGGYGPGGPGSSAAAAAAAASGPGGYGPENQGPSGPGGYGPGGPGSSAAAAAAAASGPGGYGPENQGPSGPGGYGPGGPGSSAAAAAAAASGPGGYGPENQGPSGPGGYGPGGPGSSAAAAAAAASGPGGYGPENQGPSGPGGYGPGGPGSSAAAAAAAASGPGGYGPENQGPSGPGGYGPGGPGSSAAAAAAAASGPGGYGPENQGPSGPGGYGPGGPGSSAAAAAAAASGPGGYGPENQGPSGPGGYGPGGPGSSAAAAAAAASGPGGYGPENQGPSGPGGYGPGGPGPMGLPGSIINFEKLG

Substance	release of cleaved SIINFEKL peptide from particles (RP-HPLC, 1-96 h) [1]	release of cleaved SIINFEKL peptide from particles (RP-HPLC, 1-96 h) [2]	release of cleaved SIINFEKL peptide from particles (RP-HPLC, 96 h) [1]	release of cleaved SIINFEKL peptide from particles (RP-HPLC, 96 h) [2]
cathepsin S enzyme	Cathepsin S also cleaves SIINFEKL (SEQ ID NO: 11) peptides from particles designed for cathepsin B release, but slower and in a lesser extent	Cathepsin S enzyme shows the better cleavage of SIINFEKL (SEQ ID NO: 11) peptides from both hybrid polypeptide particles		
cathepsin B enzyme			Cathepsin S enzyme shows the better cleavage of SIINFEKL (SEQ ID NO: 11) peptides from both C16 hybrid protein particles than cathepsin B	Cathepsin S enzyme shows the better cleavage of SIINFEKL (SEQ ID NO: 11) peptides from both C16 hybrid protein particles than cathepsin B
